Laboratory results as given in publication PMC11187563, “The importance of tyrosines in multimers of cyclic RGD nonapeptides: towards αvβ6-integrin targeted radiotherapeutics” (RSC Medicinal Chemistry, 2024).
Read-outs that look alike come from different tables or passages of the source.

Experiments:
[1] = Ex vivo biodistribution of 177Lu-labeled peptide tetramers in H2009 xenografted SCID mice; conditions: CB17 SCID, mouse, iv, total radioactivity, H2009 bearing SCID mice; for tissue uptake at 1.5 h / tissue to tissue ratio at 1.5 h: 43 pmol, 90 min p.i.; for tissue uptake at 72 h / tissue to tissue ratio at 72 h: 64 pmol, 3 d p.i.
In short: (§1)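 SCID mice carried subcutaneous H2009 xenografts on the right shoulder. 177Lu-labeled conjugates were injected i.v., and ex vivo organ distribution was measured at two time points post-injection.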

[2] = system: αvβ6-integrin expressing human lung adenocarcinoma cell line H2009 xenografts; experiment: as above; conditions: H2009 bearing SCID mice
In short: as §1

[3] = H2009 tumor, read-out: Tumor H2009 %IA/g
[4] = adrenals, read-out: Adrenals %IA/g
[5] = heart (myocard), read-out: Heart (myocard) %IA/g
[6] = kidneys, read-out: Kidneys %IA/g
[7] = large intestine (empty), read-out: Large intestine (empty) %IA/g
[8] = pancreas, read-out: Pancreas %IA/g
[9] = small intestine (empty), read-out: Small intestine (empty) %IA/g
[10] = stomach (empty), read-out: Stomach (empty) %IA/g
[11] = tumor/blood, read-out: tumor/organ ratio, Blood
[12] = tumor/heart (myocard), read-out: tumor/organ ratio, Heart (myocard)
[13] = tumor/liver, read-out: tumor/organ ratio, Liver
[14] = tumor/lung, read-out: tumor/organ ratio, Lung
[15] = tumor/pancreas, read-out: tumor/organ ratio, Pancreas
[16] = tumor/spleen, read-out: tumor/organ ratio, Spleen

## CC(C)C[C@@H]1NC(=O)[C@H](CC(=O)O)NC(=O)CNC(=O)[C@H](CCCNC(=N)N)NC(=O)[C@H](Cc2ccccc2)NC(=O)[C@H](CCCCNC(=O)CCc2cn(CCCNC(=O)CCP(=O)(O)CN3CCN(CP(=O)(O)CCC(=O)NCCCn4cc(CCC(=O)NCCCC[C@H]5C(=O)N[C@@H](Cc6ccccc6)C(=O)N[C@@H](CCCNC(=N)N)C(=O)NCC(=O)N[C@@H](CC(=O)O)C(=O)N[C@@H](CC(C)C)C(=O)N[C@@H](C)C(=O)N[C@@H](Cc6ccc(O)cc6)C(=O)N6CCC[C@@H]6C(=O)N5C)nn4)CCN(CP(=O)(O)CCC(=O)NCCCn4cc(CCC(=O)NCCCC[C@H]5C(=O)N[C@@H](Cc6ccccc6)C(=O)N[C@@H](CCCNC(=N)N)C(=O)NCC(=O)N[C@@H](CC(=O)O)C(=O)N[C@@H](CC(C)C)C(=O)N[C@@H](C)C(=O)N[C@@H](Cc6ccc(O)cc6)C(=O)N6CCC[C@@H]6C(=O)N5C)nn4)CCN(CP(=O)(O)CCC(=O)NCCCn4cc(CCC(=O)NCCCC[C@H]5C(=O)N[C@@H](Cc6ccccc6)C(=O)N[C@@H](CCCNC(=N)N)C(=O)NCC(=O)N[C@@H](CC(=O)O)C(=O)N[C@@H](CC(C)C)C(=O)N[C@@H](C)C(=O)N[C@@H](Cc6ccc(O)cc6)C(=O)N6CCC[C@@H]6C(=O)N5C)nn4)CC3)nn2)N(C)C(=O)[C@H]2CCCN2C(=O)[C@H](Cc2ccc(O)cc2)NC(=O)[C@H](C)NC1=O [Compound 177Lu-Y4, metal not drawn]
[1]; [3]
  tissue uptake at 1.5 h: 6.91 %ID/g
  tissue uptake at 72 h: 2.07 %ID/g
[1]; [4]
  tissue uptake at 1.5 h: 0.52 %ID/g
  tissue uptake at 72 h: 0.9 %ID/g
[1]; blood, read-out: Blood %IA/g
  tissue uptake at 1.5 h: 1.33 %ID/g
  tissue uptake at 72 h: 0.02 %ID/g
[1]; bone, read-out: Bone %IA/g
  tissue uptake at 1.5 h: 1.84 %ID/g
  tissue uptake at 72 h: 0.55 %ID/g
[1]; [5]
  tissue uptake at 1.5 h: 0.74 %ID/g
  tissue uptake at 72 h: 0.27 %ID/g
[1]; [6]
  tissue uptake at 1.5 h: 219 %ID/g
  tissue uptake at 72 h: 203 %ID/g
[1]; [7]
  tissue uptake at 1.5 h: 6.99 %ID/g
  tissue uptake at 72 h: 1.33 %ID/g
[1]; liver, read-out: Liver %IA/g
  tissue uptake at 1.5 h: 1.06 %ID/g
  tissue uptake at 72 h: 0.88 %ID/g
[1]; lung, read-out: Lung %IA/g
  tissue uptake at 1.5 h: 6.74 %ID/g
  tissue uptake at 72 h: 1.21 %ID/g
[1]; muscle, read-out: Muscle %IA/g
  tissue uptake at 1.5 h: 1 %ID/g
  tissue uptake at 72 h: 0.28 %ID/g
[1]; [8]
  tissue uptake at 1.5 h: 0.37 %ID/g
  tissue uptake at 72 h: 0.19 %ID/g
[1]; [9]
  tissue uptake at 1.5 h: 3.05 %ID/g
  tissue uptake at 72 h: 0.26 %ID/g
[1]; spleen, read-out: Spleen %IA/g
  tissue uptake at 1.5 h: 4.71 %ID/g
  tissue uptake at 72 h: 1.31 %ID/g
[1]; [10]
  tissue uptake at 1.5 h: 10.7 %ID/g
  tissue uptake at 72 h: 3.88 %ID/g
[1]; tumor / adrenals, read-out: tumor/organ ratio, Adrenals
  tissue to tissue ratio at 72 h: 4.1
[1]; tumor / bone, read-out: tumor/organ ratio, Bone
  tissue to tissue ratio at 72 h: 3.8
[1]; tumor / large intestine (empty), read-out: tumor/organ ratio, Large intestine (empty)
  tissue to tissue ratio at 72 h: 1.6
[1]; tumor / muscle, read-out: tumor/organ ratio, Muscle
  tissue to tissue ratio at 72 h: 9.1
[1]; tumor / small intestine (empty), read-out: tumor/organ ratio, Small intestine (empty)
  tissue to tissue ratio at 72 h: 8.2
[1]; tumor / stomach (empty), read-out: tumor/organ ratio, Stomach (empty)
  tissue to tissue ratio at 72 h: 0.6
[1]; tumor/adrenals, read-out: tumor/organ ratio, Adrenals
  tissue to tissue ratio at 1.5 h: 13.9
[1]; [11]
  tissue to tissue ratio at 1.5 h: 5.2
  tissue to tissue ratio at 72 h: 108
[1]; tumor/bone, read-out: tumor/organ ratio, Bone
  tissue to tissue ratio at 1.5 h: 3.8
[1]; [12]
  tissue to tissue ratio at 1.5 h: 9.6
  tissue to tissue ratio at 72 h: 8.2
[1]; tumor/large intestine (empty), read-out: tumor/organ ratio, Large intestine (empty)
  tissue to tissue ratio at 1.5 h: 1
[1]; [13]
  tissue to tissue ratio at 1.5 h: 6.6
  tissue to tissue ratio at 72 h: 2.6
[1]; [14]
  tissue to tissue ratio at 1.5 h: 1
  tissue to tissue ratio at 72 h: 1.7
[1]; tumor/muscle, read-out: tumor/organ ratio, Muscle
  tissue to tissue ratio at 1.5 h: 8.2
[1]; [15]
  tissue to tissue ratio at 1.5 h: 18.6
  tissue to tissue ratio at 72 h: 11.3
[1]; tumor/small intestine (empty), read-out: tumor/organ ratio, Small intestine (empty)
  tissue to tissue ratio at 1.5 h: 2.6
[1]; [16]
  tissue to tissue ratio at 1.5 h: 1.5
  tissue to tissue ratio at 72 h: 1.7
[1]; tumor/stomach (empty), read-out: tumor/organ ratio, Stomach (empty)
  tissue to tissue ratio at 1.5 h: 0.7
[2]; 90 min p.i.
  tumor/organ ratio, Kidneys: 0.0
[2]; 3 d p.i.
  tumor/organ ratio, Kidneys: 0.0
